This experiment has as its target HCoV-OC43 Spike antigen (HCoV-OC43) (UniProt P36334). Kind of experiment: SEC-MALS.

By stoichiometry N is commonly meant a count of units in the complex or per binding partner.

“HCoV-OC43 Spike antigen (from UniProt P36334 14-1353) (natural protein)” registered a stoichiometry N of 3.

These data come from publication PMC10889886.
